For 3 proteins, Km, Vmax and kcat results are on record in publication PMC6315137, “Pyridine Nucleotide Coenzyme Specificity of p-Hydroxybenzoate Hydroxylase and Related Flavoprotein Monooxygenases” (Frontiers in Microbiology, 2018).

Broadly, the Km is the concentration of substrate that gives half-maximal velocity. One may read the Vmax as the rate approached at saturating substrate. Broadly, the kcat is the maximal rate divided by the concentration of active sites.

Assay in all cases: purified protein
Substrate in data set [1]: O=C(O)c1ccc(O)cc1
Type of data set: biochemical, Cupriavidus pinatubonensis. As to conditions: 175 μM NADH, 60 μM FAD, 50 mM Tris/sulfate pH 7.5, 30°C.

Substrate in data set [2]: NC(=O)C1=CN([C@@H]2O[C@H](COP(=O)(O)OP(=O)(O)OC[C@H]3O[C@@H](n4cnc5c(N)ncnc54)[C@H](O)[C@@H]3O)[C@@H](O)[C@H]2O)C=CC1
It counts as biochemical, Cupriavidus pinatubonensis. As to conditions: 500 μM 4-hydroxybenzoate, 60 μM FAD, 50 mM Tris/sulfate pH 7.5, 30°C.

Substrate in data set [3]: O=C(O)c1ccc(O)cc1
Type of data set: biochemical, Cupriavidus necator. As to conditions: 175 μM NADPH, 60 μM FAD, 50 mM Tris/sulfate pH 7.5, 30°C.

Substrate in data set [4]: NC(=O)C1=CN([C@@H]2O[C@H](COP(=O)(O)OP(=O)(O)OC[C@H]3O[C@@H](n4cnc5c(N)ncnc54)[C@H](OP(=O)(O)O)[C@@H]3O)[C@@H](O)[C@H]2O)C=CC1
It counts as biochemical, Cupriavidus necator. The conditions noted are these: 500 μM 4-hydroxybenzoate, 60 μM FAD, 50 mM Tris/sulfate pH 7.5, 30°C.

Substrate in data set [5]: O=C(O)c1ccc(O)cc1
Type of data set: biochemical, Rhodococcus opacus. As to conditions: 175 μM NADH, 60 μM FAD, 50 mM Tris/sulfate pH 7.5, 30°C.

Substrate in data set [6]: NC(=O)C1=CN([C@@H]2O[C@H](COP(=O)(O)OP(=O)(O)OC[C@H]3O[C@@H](n4cnc5c(N)ncnc54)[C@H](O)[C@@H]3O)[C@@H](O)[C@H]2O)C=CC1
It counts as biochemical, Rhodococcus opacus. The conditions noted are these: 500 μM 4-hydroxybenzoate, 60 μM FAD, 50 mM Tris/sulfate pH 7.5, 30°C.

Substrate in data set [7]: NC(=O)C1=CN([C@@H]2O[C@H](COP(=O)(O)OP(=O)(O)OC[C@H]3O[C@@H](n4cnc5c(N)ncnc54)[C@H](OP(=O)(O)O)[C@@H]3O)[C@@H](O)[C@H]2O)C=CC1
It counts as biochemical, Rhodococcus opacus. As to conditions: 500 μM 4-hydroxybenzoate, 60 μM FAD, 50 mM Tris/sulfate pH 7.5, 30°C.

B1: PHBHCn1 (Cupriavidus pinatubonensis JMP134) (protein)
chain: MRTRVAIIGAGPAGLLLGHLLQRAGIDSVILEDCTQAHVEARIRAGVLEQGTVDLLEEAGVAARLREQGMVHHGIDLLFDGQRHRIDLSGLTGGRAITVYGQHEVVRDLIAARQACGAPLLFEVSQVALHGLDTQSPSLSFEHGGQRHVLACDFIAGCDGSHGVSRHAVPAGALQVFERSYPFAWLGILASAAPAAQELIYASHARGFALFSMRSPEITRLYLQCRPDEDLAGWTDRRIWDELHARLETGDGWHLNEGPVLQKGITPMRSLVTEPMQYGRLFLAGDAAHIVPPTGAKGMNLAVADVRNLAHALVTHYRHGRDDLLAGYSSACLARVWRAEHFSWWMTSLLHRFDDHTPFTARLQHAELAYVCASQAASRMLAENYVGLPFAPLPA
notes: N-terminal His10-tag, codon-optimized gene, E. coli BL21 (DE3) pLysS, Ni-chelate purified; motif 32-EDCTQAHVEAR
B1: in data set [1], the Km turned out to be 20.2 ± 2.3 µM, the Vmax is 9.9 µmol/min/mg and the kcat was determined as 7.6 ± 0.2 s⁻¹. Also, in data set [2], the Km was found to be 49.8 ± 5.6 µM, the Vmax is 12.3 µmol/min/mg and the kcat stood at 9.4 ± 0.4 s⁻¹.

B2: PHBHCn2 (Cupriavidus pinatubonensis JMP134) (protein)
chain: MRTQVAIIGAGPAGLLLGQLLSRAGIDNIIVEQRSPEYVLGRIRAGILESVTVDALERAGVAARLHDEGLPHAGIELSFNGQRHRIDLQALTGRTVTVYGQTEVTRDLMAARQAEGTTTIYEAADVSLHGFDGTRPLVRYRKDGATHEIECDYIAGCDGFHGVSRQSVPATSSQLFERVYPFGWLGILSDTPPVADELIYASHERGFALCSMRSKARSRYYVQVPSTERVEDWSDERFWDELRSRLDPQAAESLVTGPSIEKSIAPLRSFVCEPMRFGRLFLAGDAAHIVPPTGAKGLNLAASDVLYLADALTARYQQDDLRELDSYSEKCLRRIWKAERFSWWMTSLLHRFPDADAFSARIQQAELDFLVSSEAACKALAENYVGLPY
notes: N-terminal His10-tag, codon-optimized gene, E. coli BL21 (DE3) pLysS, Ni-chelate purified; motif 32-EQRSPEYVLGR
On to B2, for which, in data set [3], the Km was found to be 26.4 ± 4.4 µM, the Vmax came to 27 µmol/min/mg and the kcat is 18 ± 0.7 s⁻¹. In addition, in data set [4], the Km amounted to 146 ± 20 µM, the Vmax worked out at 49.1 µmol/min/mg and the kcat came out at 37 ± 2.8 s⁻¹.

B3: PHBHRo1CP (Rhodococcus opacus) (protein)
chain: MNTQVGIVGGGPAGLMLSHLLHLKGIDSVVLESRTREEVEGTIRAGVLEQNTVDLMVDTGLGDRVKREGLTHHGIELRFGGRGHRIDFDELTNGRAVTVYPQHEVLKDLIARRLEDDGDIRFGVSDVQVHDHTSDNPKITYLDADGNEQTLTCALVAGCDGSRTSTRGLIPETTVRTDHFRQYPFAWFGILAEAPPSSEELIYANHPRGFALISTRTPEVQRHYLQVDPDDSVDNWSDDRIWSELHARVDGEGAEIKDGKIFQKSILQFRSFVCEPMQHGNLFLAGDAAHTVPPTGAKGMNLAIADVYFLSQAMAEYFATRSRAGLEGYTDSVLPRVWRTQHFSWWMSSMLHRLPDETGFGHKRQVAELDMVTRSVAGRTLIAENYVGTPLG
notes: His10-tagged, pET16bp, E. coli, Ni-chelate purified; motif 32-ESRTREEVEGT
Take B3: the Km amounted to 30.4 ± 2.4 µM in data set [5], 39.7 ± 5.0 µM in data set [6] and 153 ± 16 µM in data set [7]. Also, the Vmax in data set [5] came out at 16.8 µmol/min/mg; in data set [6], 20 µmol/min/mg; in data set [7], 19.8 µmol/min/mg. The kcat came out at 12.9 ± 0.2 s⁻¹ in data set [5], 15.3 ± 0.7 s⁻¹ in data set [6] and 15 ± 1.5 s⁻¹ in data set [7].
